Article PMC4854415, “The Human Sodium-Glucose Cotransporter (hSGLT1) Is a Disulfide-Bridged Homodimer with a Re-Entrant C-Terminal Loop” (PLoS ONE, 2016)

Target: the molecule itself
Test: SDS-PAGE without reducing agent and western blot; total membrane preparation of oocytes expressing myc-tagged hSGLT1, 7.5 or 10% polyacrylamide gel, absence of β-Mercaptoethanol, detected with α-c-myc

B1: wt myc-tagged human sodium-glucose cotransporter 1 (hSGLT1) (natural protein, UniProt P13866 1-664, looked up)
chain: MDSSTWSPKTTAVTRPVETHELIRNAADISIIVIYFVVVMAVGLWAMFSTNRGTVGGFFLAGRSMVWWPIGASLFASNIGSGHFVGLAGTGAASGIAIGGFEWNALVLVVVLGWLFVPIYIKAGVVTMPEYLRKRFGGQRIQVYLSLLSLLLYIFTKISADIFSGAIFINLALGLNLYLAIFLLLAITALYTITGGLAAVIYTDTLQTVIMLVGSLILTGFAFHEVGGYDAFMEKYMKAIPTIVSDGNTTFQEKCYTPRADSFHIFRDPLTGDLPWPGFIFGMSILTLWYWCTDQVIVQRCLSAKNMSHVKGGCILCGYLKLMPMFIMVMPGMISRILYTEKIACVVPSECEKYCGTKVGCTNIAYPTLVVELMPNGLRGLMLSVMLASLMSSLTSIFNSASTLFTMDIYAKVRKRASEKELMIAGRLFILVLIGISIAWVPIVQSAQSGQLFDYIQSITSYLGPPIAAVFLLAIFWKRVNEPGAFWGLILGLLIGISRMITEFAYGTGSCMEPSNCPTIICGVHYLYFAIILFAISFITIVVISLLTKPIPDVHLYRLCWSLRNSKEERIDLDAEEENIQEGPKETIEIETQVPEKKKGIFRRAYDLFCGLEQHGAPKMTEEEEKAMKMKMTDTSEKPLWRTVLNVNGIILVTVAVFCHAYFA
notes: human sodium-glucose cotransporter 1 (hSGLT1), wild type; Dimer held by a disulfide bridge between the C355 residues of two molecules, by non-reducing western blot; also called wt hSGLT1; wtSGLT1; source: Xenopus laevis oocytes injected with mRNA, total membrane preparation
  stoichiometry N: 2
